Laboratory results published in patent publication US20160031996A1 (CSL, published 2016).

Key:
[1] = biological target: T1, chimera of human IL-3Rα residues 101-377 with GM-CSFRα domains (human, UniProt P15509 23-114); assay: flow cytometry, transfected 293F cells
T1 construct: on 293F cells
T1 sequence: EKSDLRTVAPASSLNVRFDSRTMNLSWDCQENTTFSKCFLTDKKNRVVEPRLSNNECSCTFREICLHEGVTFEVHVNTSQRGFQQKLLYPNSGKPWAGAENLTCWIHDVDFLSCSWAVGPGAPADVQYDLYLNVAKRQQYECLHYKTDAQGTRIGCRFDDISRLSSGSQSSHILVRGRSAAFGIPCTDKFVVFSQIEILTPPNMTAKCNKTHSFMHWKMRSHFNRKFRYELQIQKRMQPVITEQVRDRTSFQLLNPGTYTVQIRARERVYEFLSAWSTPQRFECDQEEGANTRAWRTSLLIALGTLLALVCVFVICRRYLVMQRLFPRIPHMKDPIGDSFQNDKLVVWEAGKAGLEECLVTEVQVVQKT
From the text: Expression constructs were generated of frill length human IL-3Rα or of proteins comprising hIL-3Rα domains with various GM-CSFRα domains as depicted in FIG. 1A. […] Results are tabulated in Table 1 with positive staining (+) and negative staining (−) indicated.

[2] = biological target: T2, human IL-3Rα V53A, full length (human, UniProt P26951 19-378); assay: Western blot, whole cell extracts of 293F cells
T2 construct: expressed in 293F cells; Western blot of whole cell extracts; also called V53, cell surface alanine
T2 sequence: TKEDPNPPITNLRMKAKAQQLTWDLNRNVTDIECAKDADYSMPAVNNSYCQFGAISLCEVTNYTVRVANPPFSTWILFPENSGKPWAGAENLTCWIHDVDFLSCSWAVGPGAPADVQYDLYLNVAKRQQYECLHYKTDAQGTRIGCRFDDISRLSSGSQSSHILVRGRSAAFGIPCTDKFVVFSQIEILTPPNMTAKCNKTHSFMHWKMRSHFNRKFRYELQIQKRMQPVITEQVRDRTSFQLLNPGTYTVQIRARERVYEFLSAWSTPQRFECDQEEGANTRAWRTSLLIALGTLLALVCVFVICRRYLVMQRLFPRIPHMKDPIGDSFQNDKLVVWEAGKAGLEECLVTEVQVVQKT

[3] = biological target: T3, human IL-3Rα Y58A, full length (human, UniProt P26951 19-378); assay: Western blot, whole cell extracts of 293F cells
T3 construct: expressed in 293F cells; Western blot of whole cell extracts; also called Y58, cell surface alanine
T3 sequence: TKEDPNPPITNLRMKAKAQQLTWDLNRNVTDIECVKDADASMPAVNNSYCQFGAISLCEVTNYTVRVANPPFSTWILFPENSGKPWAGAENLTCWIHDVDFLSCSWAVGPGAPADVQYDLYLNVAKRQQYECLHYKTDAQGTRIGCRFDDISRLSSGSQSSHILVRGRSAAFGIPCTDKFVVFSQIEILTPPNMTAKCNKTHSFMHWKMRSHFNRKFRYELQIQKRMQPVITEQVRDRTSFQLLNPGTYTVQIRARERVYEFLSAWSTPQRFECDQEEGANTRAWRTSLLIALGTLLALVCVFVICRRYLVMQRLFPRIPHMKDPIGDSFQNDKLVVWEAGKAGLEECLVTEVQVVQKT

[4] = biological target: T4, human IL-3Rα W93A, full length (human, UniProt P26951 19-378); assay: Western blot, whole cell extracts of 293F cells
T4 construct: expressed in 293F cells; Western blot of whole cell extracts; also called W93, cell surface alanine
T4 sequence: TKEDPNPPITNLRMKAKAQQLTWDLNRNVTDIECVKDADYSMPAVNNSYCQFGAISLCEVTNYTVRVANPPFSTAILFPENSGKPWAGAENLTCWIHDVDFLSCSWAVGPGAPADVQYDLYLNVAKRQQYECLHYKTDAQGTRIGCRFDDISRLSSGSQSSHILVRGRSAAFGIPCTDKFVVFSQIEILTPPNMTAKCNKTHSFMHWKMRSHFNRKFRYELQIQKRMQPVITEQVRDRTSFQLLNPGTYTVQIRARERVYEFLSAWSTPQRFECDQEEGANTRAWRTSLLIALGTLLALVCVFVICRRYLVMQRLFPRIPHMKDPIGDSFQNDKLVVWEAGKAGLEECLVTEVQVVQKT

[5] = biological target: T5, human IL-3Rα I94A, full length (human, UniProt P26951 19-378); assay: Western blot, whole cell extracts of 293F cells
T5 construct: expressed in 293F cells; Western blot of whole cell extracts; also called I94, cell surface alanine
T5 sequence: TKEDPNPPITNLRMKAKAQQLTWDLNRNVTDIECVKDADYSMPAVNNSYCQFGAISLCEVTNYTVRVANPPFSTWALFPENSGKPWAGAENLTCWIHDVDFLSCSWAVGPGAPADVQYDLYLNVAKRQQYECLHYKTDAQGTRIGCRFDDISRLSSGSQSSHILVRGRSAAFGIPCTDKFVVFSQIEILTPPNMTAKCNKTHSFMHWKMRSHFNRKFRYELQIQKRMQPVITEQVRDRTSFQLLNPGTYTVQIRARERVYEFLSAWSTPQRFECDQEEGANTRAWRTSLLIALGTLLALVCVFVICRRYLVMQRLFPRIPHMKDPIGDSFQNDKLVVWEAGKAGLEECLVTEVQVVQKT

[6] = biological target: T6, human IL-3Rα E51A, full length (human, UniProt P26951 19-378); assay: Western blot, whole cell extracts of 293F cells
T6 construct: expressed in 293F cells; Western blot of whole cell extracts; also called E51, cell surface alanine
T6 sequence: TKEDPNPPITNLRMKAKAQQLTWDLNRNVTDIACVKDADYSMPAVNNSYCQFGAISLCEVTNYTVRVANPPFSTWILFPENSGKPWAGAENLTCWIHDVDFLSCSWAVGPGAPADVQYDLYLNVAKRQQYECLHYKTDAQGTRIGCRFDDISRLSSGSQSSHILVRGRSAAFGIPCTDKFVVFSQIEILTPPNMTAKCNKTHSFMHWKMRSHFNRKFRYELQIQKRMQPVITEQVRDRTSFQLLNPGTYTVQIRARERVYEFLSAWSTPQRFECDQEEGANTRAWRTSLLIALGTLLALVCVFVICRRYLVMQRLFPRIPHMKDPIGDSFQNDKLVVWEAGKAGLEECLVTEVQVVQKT

Measured: binding result

B1: monoclonal antibody 7G3 (antibody, V domains shown)
VH: EVQLQQSGPELVKPGASVKMSCKASGYTFTDYYMKWVKQSHGKSLEWIGDIIPSNGATFYNQKFKGKATLTVDRSSSTAYMHLNSLTSEDSAVYYCTRSHLLRASWFAYWGQGTLVTVSA
VL: DFVMTQSPSSLTVTAGEKVTMSCKSSQSLLNSGNQKNYLTWYLQKPGQPPKLLIYWASTRESGVPDRFTGSGSGTDFTLTISSVQAEDLAVYYCQNDYSYPYTFGGGTKLEIKR
notes: mouse monoclonal antibody (hybridoma ATCC HB-12009)
no binding: all assays above
